{
  "source": "patent US20040096898A1",
  "about": "(MCMASTER UNIVERSITY, published 2004)",
  "binders": {"B1": {"name": "phage displaying the 12 amino acid peptide VSNSNWPSFPSS (peptide)", "peptide": "VSNSNWPSFPSS", "modifications": "also: displayed as a fusion on M13KE phage", "notes": "also called phage from 16 and 120 min elutants; consensus clone of the PMCA398 screen; not shown: rest of the M13KE phage display fusion (PhD12 library); not described"}},
  "target": "T1, PMCA398 (WVQKRPWLAESTPIYIQYFVKC) (conjugated through the terminus cysteine to keyhole limpet hemocyanin or ovalbumin)",
  "T1 construct": "Used as the KHLH conjugate (coated), as the free peptide (coated) and as the ovalbumin conjugate (eluting)",
  "T1 peptide": "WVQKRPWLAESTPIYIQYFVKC",
  "experiment": "phage display panning on coated peptide conjugate",
  "source_text": "The peptide fragment from the PMCA protein is preferably from an extracellular domain of the PMCA protein. […] The inventors screened an MEK13 random peptide phage display library (New England Biolabs, USA) and identified a phage that bound to the PMCA398-keyhole limpet hemocyanin conjugate and eluted with the PMCA398-ovalbumin. Specific details on the screening assay are provided in Example 1. A peptide containing the 12 amino add recognition sequence and a spacer ([…]-amide, SEQ.ID.NO.1) was synthesized and subsequently termed caloxin 2A1.\n1.4.4. Screening Procedure for PMCA398: The peptide PMCA398 is extremely hydrophobic. Therefore, it was conjugated at a lower (5:1 molar) ratio to KHLH and ovalbumin. The peptide and its conjugates could be used only at low concentrations as very fine suspensions. […] Therefore, a strategy of sequentially increasing selectivity was used. First three rounds of panning were conducted at low stringency. […] The selected phage were pooled. […] After three high stringency washes, a differential time elution was performed—at each time point replacing the elutant with new PBS. The idea was that the most tightly bound phage would elute last. The elution was at room temperature for 1, 2, 4, 8, 16 and then 120 min. The phage from 16 and 120 min elutants gave excellent results in selectivity assays. […]",
  "note": "Ends that are not written are not given here.",
  "data": [
    {"binder": "B1", "values": [
      {"measurement": "binding result", "result": "binds"}
    ]}
  ]
}
